Results on 76 sequences are retold here after the supplement of paper PMC7877785.

The data set in a line: self-splicing fitness, log relative to wild type (ln ratio); higher = more splicing; Tetrahymena group I intron in knt gene, E. coli kanamycin selection, DiMSum; sequences stand for … in CUCUCU…GGAGGGAAAAGUUAUCAGGCAUGCACCUGGUAGCUAGUCUUUAAACCAAUAGAUUGCAUCGGUUUAAAAGGCAAGACCGUCAAAUUGCGGGAAAGGGGUCAACAGCCGUUCAGUACCAAGUCUCAGGGGAAACUUUGAGAUGGCCUUGCAAAGGGUAUGGUAAUAAGCUGACGGACAUGGUCCUAACCACGCAGCCAAGUCCUAAGUCAACAGAUCUUCUGUUGAUAUGGAUGCAGUUCACAGACUAAAUGUCGGUCGGGGAAGAUGUAUUCUUCUCAUAAGAUAUAGUCGGACCUCUCCUUAAUGGGAGCUAGCGGAUGAAGUGAUGCAACACUGGAGCCGCUGGGAACUAAUUUGUAUGCGAAAGUAUAUUGAUUAGUUUUGGAGUACUCGUGGUCG
In outline: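 Library with all eight P1ex-region intron nucleotides randomised, intron inside the knt kanamycin-resistance gene on pET-22b(+), in E. coli BL21(DE3). Cells grew overnight at 37°C or 30°C on LB agar with or without 25 μg/mL kanamycin (plus 100 μg/mL carbenicillin, 50 μM IPTG, 0.2% rhamnose), in six replicate transformations. Pooled colonies were amplicon-sequenced on Illumina HiSeq 2500. DiMSum fitness is the error-weighted combination of wild-type-normalised replicate fold changes, kanamycin versus none.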

± gives the uncertainty stated by the source.

UAUUAGCAAUAUUACGCGCG: the “self-splicing fitness (ln)” value reads like this: (30 °C) -0.142 ± 0.17; (37 °C) -0.528 ± 0.17. For the sequence AGCUAGCAAUAUUACGAUUG, the “self-splicing fitness (ln)” value runs as follows: (30 °C) -2.89 ± 0.24; (37 °C) -1.98 ± 0.23. The matching figures for CUCCAGCAAUAUUACGAAAC: -3.94 ± 0.32 and -2.44 ± 0.26. With CAGCAGCAAUAUUACGAAGU, the “self-splicing fitness (ln)” value is -2.46 ± 0.14 (30 °C) and -2.03 ± 0.24 (37 °C). The like results for CAGCAGCAAUAUUACGUGGU were, in that order, -3.99 ± 0.19 and -2.93 ± 0.18. The matching figures for AGGAAGCAAUAUUACGACAU: -0.63 ± 0.014 and -0.543 ± 0.033. The like results for GCAGAGCAAUAUUACGGCAA were, in that order, -3.59 ± 0.46 and -3.6 ± 0.42.

Turning to AUCAAGCAAUAUUACGUAUU, the “self-splicing fitness (ln)” value is -2.7 ± 0.09 (30 °C) and -1.5 ± 0.11 (37 °C). Consider GCGGAGCAAUAUUACGGUGC, for which the “self-splicing fitness (ln)” value (30 °C) is -3.56 ± 0.49.

With CAGGAGCAAUAUUACGCAUG, the “self-splicing fitness (ln)” value was -3.78 ± 0.28 (30 °C) and -1.89 ± 0.2 (37 °C). Regarding UACUAGCAAUAUUACGAUAA, the “self-splicing fitness (ln)” value reads like this: (30 °C) -1.05 ± 0.085; (37 °C) -0.513 ± 0.093.

On to GGAAAGCAAUAUUACGUAAA, for which the “self-splicing fitness (ln)” value is -1.94 ± 0.1 (30 °C) and -0.563 ± 0.11 (37 °C). The like results for GUAUAGCAAUAUUACGACAG were, in that order, -2.58 ± 0.19 and -1.9 ± 0.25. The matching figures for UACGAGCAAUAUUACGACAC: -3.07 ± 0.19 and -3.28 ± 0.25. The like results for UACCAGCAAUAUUACGUUCU were, in that order, -2.28 ± 0.096 and -1.86 ± 0.11. With GUUAAGCAAUAUUACGGAGU, the “self-splicing fitness (ln)” value was -3.71 ± 0.23 (30 °C) and -0.486 ± 0.13 (37 °C). The like results for GCCCAGCAAUAUUACGUUAA were, in that order, -1.6 ± 0.097 and -1.01 ± 0.089. On to GAAUAGCAAUAUUACGCUUU, for which the “self-splicing fitness (ln)” value (30 °C) was -2.02 ± 0.15 and the “self-splicing fitness (ln)” value (37 °C) is -1.35 ± 0.16. The matching figures for ACGUAGCAAUAUUACGGGUG: -2.67 ± 0.086 and -1.18 ± 0.085. Consider GUUUAGCAAUAUUACGGGUG, for which the “self-splicing fitness (ln)” value (30 °C) is -2.84 ± 0.21 and the “self-splicing fitness (ln)” value (37 °C) was -1.53 ± 0.17.

On to GCUCAGCAAUAUUACGUACU, for which the “self-splicing fitness (ln)” value was -0.953 ± 0.087 (30 °C) and -0.636 ± 0.086 (37 °C). Take GGUGAGCAAUAUUACGUGCG: the “self-splicing fitness (ln)” value by setting is: (30 °C) -0.62 ± 0.12; (37 °C) -0.505 ± 0.18. The like results for GCCAAGCAAUAUUACGACGU were, in that order, -0.238 ± 0.099 and 0.0827 ± 0.088. The like results for AAGAAGCAAUAUUACGAACU were, in that order, -0.3 ± 0.091 and 0.86 ± 0.11. The like results for AUCAAGCAAUAUUACGUGAC were, in that order, -2.04 ± 0.12 and -1.07 ± 0.11. With ACUUAGCAAUAUUACGACUG, the “self-splicing fitness (ln)” value (30 °C) was -1.53 ± 0.099 and the “self-splicing fitness (ln)” value (37 °C) was -0.694 ± 0.16. With GUAAAGCAAUAUUACGUUCC, the “self-splicing fitness (ln)” value (30 °C) is -2.91 ± 0.18 and the “self-splicing fitness (ln)” value (37 °C) stood at 0.158 ± 0.14.

Regarding GGGGAGCAAUAUUACGCUAU, the “self-splicing fitness (ln)” value is, setting by setting: (30 °C) -3.31 ± 0.36; (37 °C) -1.88 ± 0.38. The like results for UCGAAGCAAUAUUACGUUCC were, in that order, -2.35 ± 0.33 and -0.433 ± 0.41.

Consider AUUGAGCAAUAUUACGAAAG, for which the “self-splicing fitness (ln)” value by setting is: (30 °C) -2.69 ± 0.38; (37 °C) -1.72 ± 0.29. The like results for GCCAAGCAAUAUUACGAAAC were, in that order, -2.15 ± 0.14 and -0.23 ± 0.14. Regarding AUCAAGCAAUAUUACGCAGU, the “self-splicing fitness (ln)” value by setting is: (30 °C) -2.61 ± 0.14; (37 °C) -1.71 ± 0.15. The matching figures for GCCGAGCAAUAUUACGUUCA: -1.03 ± 0.11 and -0.854 ± 0.14. The like results for UGAAAGCAAUAUUACGACUU were, in that order, -0.765 ± 0.12 and 0.423 ± 0.15. As to UGCAAGCAAUAUUACGUGUC, the “self-splicing fitness (ln)” value was -1.55 ± 0.09 (30 °C) and -3.56 ± 0.23 (37 °C). The matching figures for CACUAGCAAUAUUACGUCAU: -5.15 ± 0.41 and -2.79 ± 0.23. The like results for ACCUAGCAAUAUUACGGGAG were, in that order, -1.93 ± 0.072 and -1.41 ± 0.088. GAUUAGCAAUAUUACGAGUA: the “self-splicing fitness (ln)” value runs as follows: (30 °C) -2.63 ± 0.17; (37 °C) -0.695 ± 0.13. The matching figures for CAGCAGCAAUAUUACGGCGU: -1.61 ± 0.07 and -0.859 ± 0.08. The matching figures for GACCAGCAAUAUUACGCGAC: -2.3 ± 0.11 and -1.04 ± 0.13. The matching figures for UCCGAGCAAUAUUACGGGGA: -1.93 ± 0.15 and -0.603 ± 0.11. Regarding UAAGAGCAAUAUUACGUACG, the “self-splicing fitness (ln)” value reads like this: (30 °C) -1.42 ± 0.16; (37 °C) -1.73 ± 0.17. Take AGUCAGCAAUAUUACGCUAC: the “self-splicing fitness (ln)” value is -3.7 ± 0.24 (30 °C) and -4.03 ± 0.46 (37 °C). For GACAAGCAAUAUUACGACGU, the “self-splicing fitness (ln)” value reads like this: (30 °C) -0.139 ± 0.065; (37 °C) -0.167 ± 0.074. The matching figures for UAUCAGCAAUAUUACGUAUC: -2.11 ± 0.08 and -0.822 ± 0.096. In the case of ACCCAGCAAUAUUACGCAGC, the “self-splicing fitness (ln)” value runs as follows: (30 °C) -1.41 ± 0.068; (37 °C) -0.445 ± 0.068.

On to AGAUAGCAAUAUUACGAUCG, for which the “self-splicing fitness (ln)” value (30 °C) worked out at 0.112 ± 0.058 and the “self-splicing fitness (ln)” value (37 °C) stood at 0.0462 ± 0.1. The matching figures for UUGAAGCAAUAUUACGGGGU: -2.29 ± 0.2 and -2.27 ± 0.26.

As for CUUUAGCAAUAUUACGCGGA, the “self-splicing fitness (ln)” value was -2.48 ± 0.27 (30 °C) and -2.81 ± 0.32 (37 °C). The like results for AAGGAGCAAUAUUACGCCGG were, in that order, -3.01 ± 0.4 and -2.6 ± 0.36. In the case of GGAAAGCAAUAUUACGUGUU, the “self-splicing fitness (ln)” value reads like this: (30 °C) -2.76 ± 0.11; (37 °C) -1.66 ± 0.12.

For CGCCAGCAAUAUUACGGGGU, the “self-splicing fitness (ln)” value reads like this: (30 °C) -3.35 ± 0.15; (37 °C) -2.36 ± 0.17. In the case of GAGAAGCAAUAUUACGUGGA, the “self-splicing fitness (ln)” value was -2.64 ± 0.17 (30 °C) and -1.81 ± 0.14 (37 °C). Take CGUUAGCAAUAUUACGUCUG: the “self-splicing fitness (ln)” value was -0.914 ± 0.11 (30 °C) and 0.164 ± 0.13 (37 °C). The matching figures for GUAUAGCAAUAUUACGUAGC: -3.22 ± 0.19 and -1.46 ± 0.14. The like results for GAUUAGCAAUAUUACGUCGU were, in that order, -2.56 ± 0.19 and -1.13 ± 0.17.

GUUAAGCAAUAUUACGCCGU: the “self-splicing fitness (ln)” value (30 °C) is -1.42 ± 0.19 and the “self-splicing fitness (ln)” value (37 °C) is -1.39 ± 0.23. The like results for GUACAGCAAUAUUACGUGAA were, in that order, -3.94 ± 0.13 and -1.51 ± 0.11. Turning to GCUGAGCAAUAUUACGGGUC, the “self-splicing fitness (ln)” value by setting is: (30 °C) -4.37 ± 0.46; (37 °C) -1.36 ± 0.24. The matching figures for GGACAGCAAUAUUACGUCAG: -0.431 ± 0.068 and -0.434 ± 0.084. In the case of CUUAAGCAAUAUUACGCAGG, the “self-splicing fitness (ln)” value is -3.05 ± 0.21 (30 °C) and -2.96 ± 0.32 (37 °C).

As for GUCCAGCAAUAUUACGCGGC, the “self-splicing fitness (ln)” value is -2.27 ± 0.26 (30 °C) and -2.6 ± 0.48 (37 °C). The matching figures for UUUCAGCAAUAUUACGUCAC: -3.13 ± 0.43 and -2.86 ± 0.35. For CGGCAGCAAUAUUACGUUGU, the “self-splicing fitness (ln)” value was -2.18 ± 0.11 (30 °C) and -2.68 ± 0.19 (37 °C). The matching figures for UAUCAGCAAUAUUACGUUGC: -3.53 ± 0.18 and -2.37 ± 0.15.

GGGGAGCAAUAUUACGUUUU: the “self-splicing fitness (ln)” value is -3.04 ± 0.18 (30 °C) and -2.86 ± 0.25 (37 °C). For the sequence UAUUAGCAAUAUUACGUGUC, the “self-splicing fitness (ln)” value (30 °C) is -3.34 ± 0.39. For AGGUAGCAAUAUUACGCCCA, the “self-splicing fitness (ln)” value runs as follows: (30 °C) 0.15 ± 0.02; (37 °C) -0.0344 ± 0.039.

On to ACUCAGCAAUAUUACGAACC, for which the “self-splicing fitness (ln)” value (30 °C) was -0.758 ± 0.097 and the “self-splicing fitness (ln)” value (37 °C) is -0.326 ± 0.1.

As for GACCAGCAAUAUUACGGAAU, the “self-splicing fitness (ln)” value (30 °C) is -0.34 ± 0.046 and the “self-splicing fitness (ln)” value (37 °C) amounted to 0.128 ± 0.066.

On to AUGAAGCAAUAUUACGCGUC, for which the “self-splicing fitness (ln)” value was -4.16 ± 0.2 (30 °C) and -1.48 ± 0.13 (37 °C). For the sequence UAGCAGCAAUAUUACGAUGC, where the note is “37 °C”, the “self-splicing fitness (ln)” value was -1.66 ± 0.49. Turning to AGUGAGCAAUAUUACGCACA, the “self-splicing fitness (ln)” value (30 °C) is -1.35 ± 0.1 and the “self-splicing fitness (ln)” value (37 °C) was -0.91 ± 0.13.

With UACAAGCAAUAUUACGACAA, the “self-splicing fitness (ln)” value is -0.986 ± 0.11 (30 °C) and -0.403 ± 0.11 (37 °C). The like results for UCUAAGCAAUAUUACGUCAU were, in that order, -3.45 ± 0.2 and -2.4 ± 0.16. UUAUAGCAAUAUUACGAAGA: under “37 °C”, the “self-splicing fitness (ln)” value was -1.99 ± 0.32.
